Reference: PMC8221081

Target: Gankyrin (Gank) (UniProt Q9Z2X2)
Assay: Gank IP, C/EBPα Western blot
Settings: reference: wild-type mice, DEN-treated; sites S193

binding against the reference: lost
Substance: C/EBPα (from UniProt P53566) C/EBPα-S193A mice, DEN-treated
